Entries after “also recorded” stand apart in the source; their conditions may differ.
T1: hEva1-mouse Fc (human, UniProt O60487 27-154, limits assumed)
T1 construct: SPR analyte; the '1' is probably the first concentration (1 nM); also called hEva1-mouse Fc1 (so in the source); not shown: mouse Fc
T1 sequence: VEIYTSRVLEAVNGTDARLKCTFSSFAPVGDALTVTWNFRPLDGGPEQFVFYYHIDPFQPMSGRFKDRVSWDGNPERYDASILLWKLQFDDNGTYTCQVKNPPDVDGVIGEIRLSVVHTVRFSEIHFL


Tests used:
Eval-positive HuCCT-1 = experiment: Amplification of Eval-CAR-T after antigen stimulation (co-culture with irradiated Eval-positive HuCCT-1); assay type: cell-based, human
Description: Eval-positive HuCCT-1, was irradiated with a radioactive ray of 100 Gy, and was co-cultured with the CAR-Ts in 1:1, and the amplification efficiencies of these were analyzed. In FIG. 3J, amplification efficiencies in time series are shown. In FIG. 3K, the amplification factors at Day 4 were plotted.
In the same manner as described above, Eval-positive HuCCT-1, was irradiated with a radioactive ray of 100 Gy, and was co-cultured with the CAR-T-cells in 1:1. Then, 50 U/ml of IL-2 was added once every three days, at Day 1, 4, and 7, followed by culturing. In FIG. 3L, the respective amplification efficiencies in time series are shown. In FIG. 3M, the amplification factors at Day 18 were plotted.
In the same manner as described above, Eval-positive HuCCT-1, was irradiated with a radioactive ray of 100 Gy, and was co-cultured with hEva1 CAR-T-cells in 1:1.
In the same manner as described above, Eval-positive HuCCT-1, was irradiated with a radioactive ray of 100 Gy, and was co-cultured with hEva1-CAR-Ts in 1:1.

[1] = tested on: various tumor cell lines (Eval positive and Eval negative); experiment: Cytokine production of Eval-CAR-T co-cultured with tumor cell lines (intracellular staining, flow cytometry); assay type: cell-based, human; settings: co-culture 1:1, 6 hours, Day 17 cells
Description: Next, the cytokine production capacity of the Eval-CAR-T using the anti-human Eval mouse antibody sequence was analyzed. Specifically, CAR-T prepared as described above was cultured until day 17, and the cells were co-cultured with various main cell lines in 1:1. After co-culturing for 6 hours, immobilization and intracellular staining (BD cytofix/cytoperm buffer) were conducted to stain the cells with IFN-gamma (IFN-γ).
The experiment was conducted by using the above-described Eval-CAR-Ts at Day 17. Specifically, the Eval-CAR-Ts were co-cultured with tumor cell lines in 1:1, and the cells were immobilized and stained in the same methods as described above after 6 hours, and intracellular IFN-gamma and IL-2 were evaluated with flow cytometry.
(§1) The experiment was conducted by using hEva1-CAR-Ts at Day 17. Specifically, hEva1-CAR-Ts were co-cultured with tumor cell lines in 1:1, and the cells were immobilized and stained in the same manner as described above after 6 hours, and intracellular IFN-gamma and IL-2 were evaluated with flow cytometry. These figures show the percentages at which the cytokine was positive among the CD8 positive cells.
as §1, with “using the above-described” for “using”, “Specifically, the” for “Specifically,”, “after […]” for “after 6”, “which each” for “which the”

hEva1-mouse Fc [2] = target: T1, hEva1-mouse Fc; experiment: SPR (BiaCore T200), single-cycle kinetics; antibody captured by anti-human IgG on CM5 chip, hEva1-mouse Fc as analyte; antibody made in CHO cells
hEva1-mouse Fc [3] = target: T1, hEva1-mouse Fc; experiment: SPR (BiaCore T200), single-cycle kinetics; antibody captured by anti-human IgG on CM5 chip, hEva1-mouse Fc as analyte; antibody made in HEK293T cells
Description: (§2) The dissociation constants and association constants of the humanized antibodies and the like were analyzed by using surface plasmon resonance (SPR, product name: BiaCore T200 (manufactured by GE healthcare)).
Specifically, first, human IgG capture antibodies were immobilized on a CM5 chip by an amine coupling method. […] Then, the kinetics analysis on the anti-Eval antibody and hEva1 was conducted by a single-cycle method using the following measurement conditions.

hEva1-mouse Fc [4] = experiment: Surface plasmon resonance kinetics analysis (BiaCore T200, single-cycle); assay type: binding, human; settings: SPR, antibody captured 5 nM, analyte hEva1-mouse Fc 1-250 nM, HBS-EP+ pH 7.4
Description: as §2
Specifically, first, human IgG capture antibodies were immobilized on a CM5 chip by an amine coupling method. This immobilization was conducted in both reference cells and active cells. Then, the kinetics analysis on the anti-Eval antibody and hEva1 was conducted by a single-cycle method using the following measurement conditions.
• Sample compartment temperature: 10° C. • Running buffer: HBS-EP+buffer, pH 7.4 • Capturing molecule: Human IgG antibody, reference & active cells • Ligand: Various antibodies 5 nM, active cells only • Analyte: hEva1-mouse Fc1, 5, 25, 125, 250 nM, reference & active cells • Regeneration buffer: 3M MgCl2, reference & active cells • 3 cycles of Blanks (Analyte zero concentration)

[5] = 50 U/ml IL-2 at Day 1, 4, 7, co-culture 1:1 with HuCCT-1 irradiated 100 Gy
[6] = absence of IL-2, co-culture 1:1 with HuCCT-1 irradiated 100 Gy

Molecule | kd (hEva1-mouse Fc [4]) [s⁻¹] | ka (hEva1-mouse Fc [4]) [M⁻¹ s⁻¹] | further results
15aa: mouse antibody-derived Eval-CAR-T with spacer length 15aa (SEQ ID NO: 59) (EPKSSDKTHTSPPCP; Hinge region:15aa) |  |  | amplification efficiency after Eval stimulation (Eval-positive HuCCT-1; [5]): cell amplifications tended to be better; also recorded: most excellent in cell growth; amplification efficiency after Eval stimulation (Eval-positive HuCCT-1; [6]): higher cell amplifications
30aa: mouse antibody-derived Eval-CAR-T with spacer length 30aa (SEQ ID NO: 60) (EPKSSDKTHTSPPCPAPEFLGGPSVFLFPP; Hinge region:30aa) |  |  | cytokine production (intracellular IFN-gamma and IL-2) [1]: excellent cytokine productions; amplification efficiency after Eval stimulation (Eval-positive HuCCT-1; [5]): cell amplifications tended to be better; amplification efficiency after Eval stimulation (Eval-positive HuCCT-1; [6]): higher cell amplifications
chimeric human IgG1 (constant regions of the B2E5-48 mouse antibody replaced by those of human IgG type 1) (antibody, V domains shown, Mouse B2E5-48 variable regions on human IgG1 constant regions; The same construct was made in HEK293T cells and in CHO cells and both preparations were measured; also called Chimeric antibody (CHO); Chimeric antibody (293T)) VH: QVQLQQPGAELVKPGASVKLSCKASGYTFTNYWMHWVKLRPGQGFEWIGEINPTNGGTDYNEKFKRKATLTVDKSSSTAYMQLSSLTSEDSAVYYCTIYTTALDYWGQGTTLTVSS VL: QIVLTQSPALMSASPGERVTLTCSASSSVGYMYWYQQKPGSSPKPWIYVTSNLASGVPARFSGSGSGTSYSLTISSMEAEDAATYYCQQWSSNPPTFGAGTKLELK |  |  | Kd (hEva1-mouse Fc [2]): 445 nM; koff (hEva1-mouse Fc [2]): 0.00845 s⁻¹; kon (hEva1-mouse Fc [2]): 19000 M⁻¹ s⁻¹; Kd (hEva1-mouse Fc [3]): 482 nM; koff (hEva1-mouse Fc [3]): 0.00947 s⁻¹; kon (hEva1-mouse Fc [3]): 19600 M⁻¹ s⁻¹
Chimeric antibody (CHO): chimeric human IgG1 obtained by substituting the constant regions of the B2E5-48 mouse antibody with those of human IgG type 1; control (antibody, V domains shown) VH: QVQLQQPGAELVKPGASVKLSCKASGYTFTNYWMHWVKLRPGQGFEWIGEINPTNGGTDYNEKFKRKATLTVDKSSSTAYMQLSSLTSEDSAVYYCTIYTTALDYWGQGTTLTVSS VL: QIVLTQSPALMSASPGERVTLTCSASSSVGYMYWYQQKPGSSPKPWIYVTSNLASGVPARFSGSGSGTSYSLTISSMEAEDAATYYCQQWSSNPPTFGAGTKLELK | 0.008447 | 19010 | 
125aa: mouse antibody-derived Eval-CAR-T with spacer length 125aa (SEQ ID NO: 62) (protein, Hinge region:125aa) EPKSSDKTHTSPPCPAPEFLGGPSVFLFPPKPKDTLMISRTPEVTCVVVDVSQEDPEVQFNWYVDGVEVHNAKTKPREEQFNSTYRVVSVLTVLHQDWLNGKEYKCKVSNKGLPSSIEKTISKAK |  |  | cytokine production (intracellular IFN-gamma and IL-2) [1]: excellent cytokine productions
H3-L4: humanized B2E5-48 IgG1, VH H3 (SEQ ID NO: 16), VL L4 (SEQ ID NO: 8) (antibody, V domains shown, Variable Region of Heavy Chain 3 (Humanized B2E5-48); Variable Region of Light Chain 4 (Humanized B2E5-48)) VH: QVQLVQSGSELKKPGASVKVSCKASGYTFTNYWMHWVRQAPGQGLEWIGEINPTNGGTDYNEGFTGRFVLSVDKSSSTAYLQISSLKAEDTAVYYCTIYTTALDYWGQGTLVTVSS VL: DIQLTQSPSFLSASVGDRVTITCRASSSVGYMYWYQQKPGKAPKPLIYVTSNLASGVPSRFSGSGSGTEYTLTISSLQPEDFATYYCQQWSSNPPTFGQGTKLEIK | 0.0138 | 15800 | 
H4-L2: humanized B2E5-48 IgG1, VH H4 (SEQ ID NO: 14), VL L2 (SEQ ID NO: 7) (antibody, V domains shown, Variable Region of Heavy Chain 4 (Humanized B2E5-48); Variable Region of Light Chain 2 (Humanized B2E5-48)) VH: QVQLVQSGSELKKPGASVKVSCKASGYTFTNYWMHWVRQAPGQGLEWMGEINPTNGGTDYNEGFTGRFVFSVDKSVSTAYLQISSLKAEDTAVYYCTIYTTALDYWGQGTLVTVSS VL: EIVLTQSPATLSLSPGERATLSCRASSSVGYMYWYQQKPGQAPRPLIYVTSNRATGIPARFSGSGSGTDYTLTISSLEPEDFAVYYCQQWSSNPPTFGQGTKLEIK | 0.01457 | 18980 | 
H4-L4: humanized B2E5-48 IgG1, VH H4 (SEQ ID NO: 14), VL L4 (SEQ ID NO: 8) (antibody, V domains shown, Variable Region of Heavy Chain 4 (Humanized B2E5-48); Variable Region of Light Chain 4 (Humanized B2E5-48)) VH: QVQLVQSGSELKKPGASVKVSCKASGYTFTNYWMHWVRQAPGQGLEWMGEINPTNGGTDYNEGFTGRFVFSVDKSVSTAYLQISSLKAEDTAVYYCTIYTTALDYWGQGTLVTVSS VL: DIQLTQSPSFLSASVGDRVTITCRASSSVGYMYWYQQKPGKAPKPLIYVTSNLASGVPSRFSGSGSGTEYTLTISSLQPEDFATYYCQQWSSNPPTFGQGTKLEIK | 0.01525 | 15340 | 

Continued, in another order:

kd (hEva1-mouse Fc [4]) [s⁻¹] | Molecule | ka (hEva1-mouse Fc [4]) [M⁻¹ s⁻¹] | further results
0.00947 | Chimeric antibody (293T): chimeric human IgG1 obtained by substituting the constant regions of the B2E5-48 mouse antibody with those of human IgG type 1; control (antibody, V domains shown) VH: QVQLQQPGAELVKPGASVKLSCKASGYTFTNYWMHWVKLRPGQGFEWIGEINPTNGGTDYNEKFKRKATLTVDKSSSTAYMQLSSLTSEDSAVYYCTIYTTALDYWGQGTTLTVSS VL: QIVLTQSPALMSASPGERVTLTCSASSSVGYMYWYQQKPGSSPKPWIYVTSNLASGVPARFSGSGSGTSYSLTISSMEAEDAATYYCQQWSSNPPTFGAGTKLELK | 19640 | 
0.01357 | H4-L3: humanized B2E5-48 IgG1, VH H4 (SEQ ID NO: 14), VL L3 (SEQ ID NO: 10) (antibody, V domains shown, Variable Region of Heavy Chain 4 (Humanized B2E5-48); Variable Region of Light Chain 3 (Humanized B2E5-48)) VH: QVQLVQSGSELKKPGASVKVSCKASGYTFTNYWMHWVRQAPGQGLEWMGEINPTNGGTDYNEGFTGRFVFSVDKSVSTAYLQISSLKAEDTAVYYCTIYTTALDYWGQGTLVTVSS VL: QIQLTQSPSFLSASVGDRVTITCRASSSVGYMYWYQQKPGKAPKPLIYVTSNLASGVPSRFSGSGSGTEYTLTISSLQPEDFATYYCQQWSSNPPTFGQGTKLEIK | 15480 | 
